The supplement of paper PMC9112550, “Optimization of the antimicrobial peptide Bac7 by deep mutational scanning” (BMC Biology, 2022)

system: Escherichia coli TOP10; assay: shrunken log2 fold change of peptide-encoding DNA abundance (4.5 h post-induction vs induction); higher = less antimicrobial activity (less host growth inhibition); settings: time post-induction: 4.5 h; library: site-saturation at positions 5, 18, 19, 20
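Note: peptides expressed intracellularly from a pBAD plasmid library in pooled LB shake-flask culture, induced with 0.3% L-arabinose, DNA abundance read by NGS, three biological replicates, DESeq2 with apeglm shrinkage.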

Sequence	shrunken log2 fold change
RRIRNRPPRLPRPRPRPKLQPRP	0.114
RRIRERPPRLPRPRPRPDRFPRP	-0.01
RRIRSRPPRLPRPRPRPNHFPRP	-0.21
RRIRNRPPRLPRPRPRPLFNPRP	-0.777
RRIRLRPPRLPRPRPRPAWLPRP	0.229
RRIRARPPRLPRPRPRPSRLPRP	0.487
RRIRPRPPRLPRPRPRPIKRPRP	-0.125
RRIRVRPPRLPRPRPRPWMEPRP	-0.124
RRIRRRPPRLPRPRPRPCMCPRP	-0.382
RRIRLRPPRLPRPRPRPPWVPRP	0.344
RRIRNRPPRLPRPRPRPHGHPRP	-0.0841
RRIRLRPPRLPRPRPRPQWDPRP	-0.00172
RRIRERPPRLPRPRPRPPDRPRP	-0.00621
RRIRTRPPRLPRPRPRPSWFPRP	-0.343
RRIRKRPPRLPRPRPRPMHSPRP	-0.0199
RRIRRRPPRLPRPRPRPFRRPRP	0.322
RRIRERPPRLPRPRPRPYLKPRP	0.0189
RRIRLRPPRLPRPRPRPCNVPRP	-0.3
RRIRGRPPRLPRPRPRPDPFPRP	0.302
RRIRDRPPRLPRPRPRPITHPRP	-0.305
RRIRHRPPRLPRPRPRPWTGPRP	-0.104
RRIRLRPPRLPRPRPRPYIRPRP	-1.62
RRIRRRPPRLPRPRPRPILHPRP	-0.0819
RRIRPRPPRLPRPRPRPNSDPRP	-0.39
RRIRLRPPRLPRPRPRPIENPRP	0.0407

Sequence	shrunken log2 fold change
RRIRTRPPRLPRPRPRPHGAPRP	-0.0597
RRIRSRPPRLPRPRPRPIPEPRP	0.208
RRIRLRPPRLPRPRPRPHEKPRP	0.0162
RRIRKRPPRLPRPRPRPMQMPRP	-0.00145
RRIRVRPPRLPRPRPRPHHDPRP	-0.37
RRIRSRPPRLPRPRPRPVAVPRP	0.0198
RRIRQRPPRLPRPRPRPGPAPRP	0.114
RRIRNRPPRLPRPRPRPLQIPRP	-0.143
RRIRQRPPRLPRPRPRPTHRPRP	-0.000309
RRIRHRPPRLPRPRPRPPFWPRP	0.0835
RRIRQRPPRLPRPRPRPTDLPRP	0.0327
RRIRARPPRLPRPRPRPQLVPRP	0.308
RRIRRRPPRLPRPRPRPKTEPRP	0.452
RRIRMRPPRLPRPRPRPWQPPRP	-0.0454
RRIRFRPPRLPRPRPRPEEIPRP	0.0025
RRIRMRPPRLPRPRPRPCSVPRP	-0.0402
RRIRFRPPRLPRPRPRPYDDPRP	-0.0579
RRIRERPPRLPRPRPRPEIYPRP	0.0872
RRIRHRPPRLPRPRPRPEKWPRP	-0.0863
RRIRHRPPRLPRPRPRPGWNPRP	0.0316
RRIRTRPPRLPRPRPRPLASPRP	0.125
RRIRSRPPRLPRPRPRPDNFPRP	-0.299
RRIRFRPPRLPRPRPRPQCLPRP	-0.0767
RRIRRRPPRLPRPRPRPIDYPRP	-0.029
RRIRERPPRLPRPRPRPTQCPRP	-0.133

Sequence	shrunken log2 fold change
RRIRWRPPRLPRPRPRPFCMPRP	-0.218
RRIRTRPPRLPRPRPRPFNSPRP	-0.127
RRIRSRPPRLPRPRPRPERYPRP	-0.037
RRIRKRPPRLPRPRPRPYIKPRP	-0.28
RRIRLRPPRLPRPRPRPLCVPRP	0.688
RRIRNRPPRLPRPRPRPLMHPRP	-0.0721
RRIRERPPRLPRPRPRPLYCPRP	-0.444
RRIRERPPRLPRPRPRPNLRPRP	0.0952
RRIRMRPPRLPRPRPRPLDDPRP	3.25
RRIRVRPPRLPRPRPRPTVMPRP	0.126
RRIRLRPPRLPRPRPRPTGRPRP	0.105
RRIRDRPPRLPRPRPRPTRNPRP	0.174
RRIRSRPPRLPRPRPRPPGHPRP	0.167
RRIRWRPPRLPRPRPRPPYEPRP	-0.103
RRIRIRPPRLPRPRPRPFMQPRP	-0.91
RRIRSRPPRLPRPRPRPKVKPRP	0.0666
RRIRKRPPRLPRPRPRPMGKPRP	-0.0982
RRIRSRPPRLPRPRPRPEQIPRP	0.157
RRIRCRPPRLPRPRPRPPVTPRP	0.0706
RRIRTRPPRLPRPRPRPSNIPRP	-0.329
RRIRSRPPRLPRPRPRPDKDPRP	-0.102
RRIRLRPPRLPRPRPRPKAHPRP	0.125
RRIRMRPPRLPRPRPRPYYGPRP	0.0528
RRIRRRPPRLPRPRPRPNAHPRP	0.0582
RRIRQRPPRLPRPRPRPTCLPRP	-0.108

Sequence	shrunken log2 fold change
RRIRCRPPRLPRPRPRPNVQPRP	-0.0319
RRIRSRPPRLPRPRPRPCEAPRP	0.389
RRIRIRPPRLPRPRPRPGQWPRP	-0.124
RRIRLRPPRLPRPRPRPFCHPRP	0.0449
RRIRFRPPRLPRPRPRPGFFPRP	0.023
RRIRMRPPRLPRPRPRPDEMPRP	0.0155
RRIRCRPPRLPRPRPRPMPGPRP	0.0112
RRIRGRPPRLPRPRPRPLWSPRP	0.117
RRIRVRPPRLPRPRPRPVMDPRP	-0.324
RRIRCRPPRLPRPRPRPGDFPRP	-0.0027
RRIRCRPPRLPRPRPRPNGIPRP	-0.117
RRIRCRPPRLPRPRPRPFETPRP	-0.0151
RRIRQRPPRLPRPRPRPNAIPRP	-0.393
RRIRKRPPRLPRPRPRPPNGPRP	0.189
RRIRLRPPRLPRPRPRPDRGPRP	0.0151
RRIRYRPPRLPRPRPRPLDQPRP	-0.169
RRIRRRPPRLPRPRPRPQAGPRP	-9.87e-05
RRIRRRPPRLPRPRPRPVINPRP	-0.0966
RRIRPRPPRLPRPRPRPQGIPRP	0.102
RRIRRRPPRLPRPRPRPDVHPRP	-0.101
RRIRARPPRLPRPRPRPAHYPRP	0.095
RRIRDRPPRLPRPRPRPSHQPRP	-0.211
RRIRFRPPRLPRPRPRPFYMPRP	-0.317
RRIRKRPPRLPRPRPRPKGMPRP	-0.00227
RRIRMRPPRLPRPRPRPPAGPRP	1.5

Sequence	shrunken log2 fold change
RRIRSRPPRLPRPRPRPDNQPRP	-0.568
RRIRCRPPRLPRPRPRPKMIPRP	-0.727
RRIRERPPRLPRPRPRPPFVPRP	0.072
RRIRQRPPRLPRPRPRPNFKPRP	-0.235
RRIRYRPPRLPRPRPRPSSGPRP	0.00646
RRIRMRPPRLPRPRPRPDWNPRP	-0.0431
RRIRKRPPRLPRPRPRPRGYPRP	0.166
RRIRVRPPRLPRPRPRPMRAPRP	0.71
RRIRYRPPRLPRPRPRPRSQPRP	0.298
RRIRPRPPRLPRPRPRPIWRPRP	0.583
RRIRDRPPRLPRPRPRPQRYPRP	-0.0811
RRIRTRPPRLPRPRPRPAKMPRP	-0.0252
RRIRSRPPRLPRPRPRPFREPRP	0.0536
RRIRYRPPRLPRPRPRPCDLPRP	-0.618
RRIRRRPPRLPRPRPRPFDTPRP	-0.154
RRIRIRPPRLPRPRPRPLMKPRP	-0.232
RRIRMRPPRLPRPRPRPCVRPRP	0.0764
RRIRERPPRLPRPRPRPSTGPRP	-0.467
RRIRWRPPRLPRPRPRPFCFPRP	0.449
RRIRTRPPRLPRPRPRPSVKPRP	-0.177
RRIRDRPPRLPRPRPRPPSRPRP	-0.0515
RRIRIRPPRLPRPRPRPVVAPRP	-0.0606
RRIRRRPPRLPRPRPRPDSFPRP	-0.0228
RRIRTRPPRLPRPRPRPFMQPRP	-0.0497
RRIRNRPPRLPRPRPRPEKKPRP	-0.113
